Reference: patent USRE48599E1, “Compositions comprising TLIA-Ig fusion protein for the regulation of T regulatory cells, and methods for their use” (University of Miami, priority 2013, dated 2021)

B1: rmTL1A-Ig: extracellular domain of rhesus macaque TL1A fused to hinge-CH2-CH3 domain of rhesus macaque IgG1, SEQ ID NO: 10 (protein)
chain: METDTLLLWVLLLWVPGSTGDLEIKTCGGGSKPPTCPPCPAPELLGGPSVFLFPPKPKDTLMISRTPEVTCVVVDVSQEDPDVKFNWYVNGAEVHHAQTKPRETQYNSTYRVVSVLTVTHQDWLNGKEYTCKVSNKALPVPIQKTISKDKGQPREPQVYTLPPSREELTKNQVSLTCLVKGFYPSDIVVEWENSGQPENTYKTTPPVLDSDGSYFLYSKLTVDKSRWQQGNVFSCSVMHEALHNHYTQEFKGQEFAPSHQQVYAPLRADGDKPRAHLTVVTQTPTQHFKNQFPALHWEHELGLAFTKNRMNYTNKFLLIPESGDYFIYSQVTFRGMTSECSEIRQAGRPNKPDSITVVITKVTDSYPEPTQLLMGTKSVCEVGSNWFQPIYLGPMFSLQEGDKLMVNVSDISLVDYTKEDKTFFGAFLL

Key:
[1] = Serum half-life of TL1A-Ig in rhesus macaques; format: in vivo, rhesus macaque; conditions: NHP serum, IV, one-phase exponential decay model
Method: Safety and Activity of TL1A-Ig in Rhesus Macaque The safety and efficacy of TL1A-Ig in non-human primates (NHP) (Indian-origin macaca mulatta) were determined. Following routine screening and 60-day quarantine, rhesus macaque (rm) TL1A-Ig or human (h) TL1A-Ig were administered to the NHP on Day 0 by intravenous (IV) bolus infusion (15 minutes) Animal weights and cage-side observations were performed daily and peripheral blood was collected for analysis of complete blood counts, routine chemistries, CD4 TruCounts, serum isolation and flow cytometry analysis. For flow cytometry analysis, peripheral blood cells were counted on a Countess automated cell counter and aliquots of 1.5×10^6 cells were distributed per sample tube, FMO (Fluorescent Minus One), controls, and compensation tubes. Test samples were stained in D-PBS and 0.5% FBS with 1 μL/mL live dead aqua blue discriminator (Life Technologies). […] Sample tubes were analyzed in the cytometer (Calibur, BD). […] Plates were again washed and wells were resuspended with 150 μL sheath fluid; plates were then read and analyzed on the Luminex® SD Analyzer (Life Technologies, Inc.). The PE signal (Median Fluorescent Intensity, MFI) is proportional to the amount of each cytokine present in the sample; concentrations were calculated from the standard curve. […]

human Tregs = assay: Human Treg proliferation in humanized mice (NSG-hu); format: in vivo
Source text: Commercial antibodies for use in flow cytometry, ELISA and in vivo studies were purchased from BD Pharmingen, eBioscience or BioLegend. The Armenian Hamster IgG Isotype control was bought from eBioscience. Armenian hamster hybridomas producing antibodies to mouse TNFRSF25 (4C12, agonistic) were generated as described in Fang, et al. 2008. Essential role of TNF receptor superfamily 25 (TNFRSF25) in the development of allergic lung inflammation. J Exp Med 205:1037-1048. Briefly, 4C12, hTL1A-Ig and rmTL1A-Ig were produced in hollow fiber bioreactors (Fibercell Systems, Frederick, Md.) and purified from serum-free supernatants on a protein G (4C12) or protein A (TL1A-Ig) column (GE Healthcare, UK). For flow cytometry analysis, single cell suspensions were prepared from spleen and lymph nodes. 10^6 cells were pre-blocked with anti-mouse CD16/CD32 and stained with different antibody combinations. Intracellular staining was performed according to standard procedures. Flow cytometric acquisition was performed on a Becton Dickinson Fortessa instrument and […] or FlowJo software was used for analysis.
Human fetal livers from elective terminations (12-20 weeks of gestational age, Advanced Bioscience Resources) were acquired on a fee for service basis. CD34+ cells were enriched using immunomagnetic beads according to the manufacturer's instructions following density gradient centrifugation of single cell suspensions (CD34+ selection kit; Miltenyi Biotec, Auburn, Calif.). Purity of CD34+ cells isolated was evaluated by flow cytometry and was >85%. Cells were aliquotted and frozen for later HLA typing and transplanted into sub-lethally irradiated neonatal NSG mice. HLA typed CD34+ cells hematopoietic stem cells (HSC) were placed into culture containing 10% human serum, 10 ng/ml each of interleukin (IL)-3, IL-6 and stem cell factor (SCF) in IMDM for 3-5 days. On the day of transplant, cells were harvested from culture dishes and washed in HBSS and CFU and LTC-IC assays were performed to evaluate proliferation and differentiation potential. These assays were performed using standard reagents (StemCell Inc.) and methods as published by the manufacturer. CFU potential was identical to bone marrow progenitor cells following 14 day culture in methylcellulose media supplemented with SCF, GM-CSF, IL-3 and EPO. These assays readily reveal whether gross morphological characteristics and colony numbers of isolated HSC are within expected limits. One-day old NSG mice generated from timed matings were housed with foster-dams for 24 hours post-irradiation (sub-lethal, 1 Gy, whole body irradiation) at which time they are transplanted with 1×10^6−2×10^6 pre-cultured HSC intra-hepatically (i.h.) in a volume of 20 μl using a Hamilton syringe and a 30 gauge ½ inch needle. The pups were immediately returned to their foster-dams and allowed to nurse until weaning at 28 days. Human/mouse chimerism was evaluated in peripheral blood at 15 weeks of age by determining the relative percentages of murine and human CD45+ cells by flow cytometry. Once human CD45+ cells were detected, analysis was extended to include human CD3, CD4, CD8, CD11c and CD19 on all blood collections. Successfully engrafted mice were selected when the fraction of human CD45+ cells in peripheral blood exceeded 60% (NSG-hu).
To determine the in vivo activity of hTL1A-Ig on human Tregs, humanized mice were generated using human fetal liver CD34^+ cells transferred into NOD, SCID, common γ-chain deficient (NSG) recipient mice, as described above. […] The majority of human CD45+ lymphocytes in the spleen were T cells (˜50%) followed by B cells (˜35%), NK cells (˜2-3%) and dendritic cells (˜1%).

[2] = Safety of TL1A-Ig in rhesus macaques (observations, chemistries, CBC, histopathology); format: in vivo; conditions: necropsy day 21, 1.5 mg/kg; for histopathology of midbrain, brainstem, liver and pancreas: H&E sections; for histopathology of sigmoid colon / histopathology of terminal ileum: four out of four animals
Method: (§1) Safety and Activity of TL1A-Ig in Rhesus Macaque The safety and efficacy of TL1A-Ig in non-human primates (NHP) (Indian-origin macaca mulatta) were determined. Following routine screening and 60-day quarantine, rhesus macaque (rm) TL1A-Ig or human (h) TL1A-Ig were administered to the NHP on Day 0 by intravenous (IV) bolus infusion (15 minutes) Animal weights and cage-side observations were performed daily and peripheral blood was collected for analysis of complete blood counts, routine chemistries, CD4 TruCounts, serum isolation and flow cytometry analysis. For flow cytometry analysis, peripheral blood cells were counted on a Countess automated cell counter and aliquots of 1.5×10^6 cells were distributed per sample tube, FMO (Fluorescent Minus One), controls, and compensation tubes. Test samples were stained in D-PBS and 0.5% FBS with 1 μL/mL live dead aqua blue discriminator (Life Technologies). Test samples and appropriate controls were surface stained for 30 minutes with the indicated cocktails of antibodies (purchased from BD, Becton Dickinson, eBioscience or Life Technologies). For intracellular staining, cells were permeabilized with Fix/perm solution (eBioscience) for 30 minutes at 4° C. Cells were washed and stained intracellularly with anti-FoxP3 antibody for 30 minutes. Following staining, cells were washed and resuspended in 300 μL, FACs wash buffer for acquisition on a BD™ LSR11 flow cytometer (Beckton Dickinson (BD)). Cells were acquired and analysis was done of FlowJo software (Tree Star, Inc., Ashland, Oreg.). For CD4/CD8 Trucounts, CD45, CD3, CD4 and CD8 antibodies were dispensed in TruCount tubes (BD, Cat.No. 340334); 50 uL samples were added and allowed to stain for 15 minutes at room temperature in the dark. Subsequently, samples are lysed with 450 μL FACS lysing solution, and incubated for 15 minutes. Sample tubes were analyzed in the cytometer (Calibur, BD). The events were gated on lymphocytes in side scatter (SSC) dot plot and the CD45-positive population was selected, and then reported: CD3+CD4+ T cells, and CD3+CD8+ T cells. For multiplex analysis of serum cytokines, serum from the indicated days was collected and samples and controls for standard curves were placed in filter plates, and then diluted ¼, and incubated for 2 hour at room temperature with anti-cytokine beads. The content was removed and washed 2 times with the buffer before adding a mixture of biotinylated detection antibodies to each well. After incubating with detection antibody for 1 hour, plates were washed 2 times and incubated for 30 minutes with streptavidin-PE. Plates were again washed and wells were resuspended with 150 μL sheath fluid; plates were then read and analyzed on the Luminex® SD Analyzer (Life Technologies, Inc.). The PE signal (Median Fluorescent Intensity, MFI) is proportional to the amount of each cytokine present in the sample; concentrations were calculated from the standard curve.
(§2) An inherent limitation of rodent animal models is related to the highly controlled and restricted history of foreign antigen challenge of laboratory animals bred and housed under pathogen-free conditions. Given the antigen-dependent activity of TNFRSF25 agonists, this limitation has important consequences for translational studies of these agents into NHP, wherein the history of foreign antigen exposure is dramatically more diverse. To address this question, rhesus macaque TL1A-Ig (rmTL1A-Ig) was produced and tested in NHP. Treatment-naïve Indian-origin rhesus macaques (nonhuman primates (NHP)) were procured, housed and treated by expert personnel at Advanced Bioscience Laboratories (ABL, Rockville, Md.). Rhesus macaque TL1A-Ig (rmTL1A-Ig) and human (h) TL1A-Ig were manufactured and purified as described above and shipped to ABL personnel at the indicated concentration in blinded tubes diluted in a total volume of 10 ml PBS. […]

[3] = tested on: peripheral blood Treg cells; assay: Peripheral blood Treg expansion, T cell subsets and serum cytokines in rhesus macaques; format: in vivo, rhesus macaque; conditions: for expansion of the Treg compartment at peak: 1.5 mg/kg, single IV; for expansion of the Treg compartment at peak / time of peak relative fold-expansion of Treg: peripheral blood; for serum levels of IFN-γ and TGF-β: by day 4 after treatment; for serum levels of IL-2, IL-4, IL-5, IL-10 or TNF-α: day 0, day 2, day 4, Luminex
Method: as §1, §2

Molecule	half-life [1]	total frequency of Treg and proportion of Treg in active proliferation (Ki67+) (human Tregs; day 5, spleen, lymph node and small intestine)	expression of CD69 in CD4+ and CD8+ conventional cells (human Tregs; lymph nodes)	mean Treg value (human Tregs; lymph nodes, day 5, 100 μg i.p.)	mean Treg value (±SEM) (human Tregs; small intestine, day 5, 100 μg i.p.)	mean Treg value (±SEM), FoxP3+ out of total CD4+CD25hiCD127- cells (human Tregs; spleen, day 5, 100 μg i.p.)	overall balance of hCD45+, hCD4+ or hCD8+ cells (human Tregs; spleen, lymph nodes, small intestine, day 5 after injection)	expression of CD69 in CD8+ conventional cells (human Tregs; spleen, p=0.0064)	expression of CD69 in CD4+ conventional cells (human Tregs; spleen, p=0.0363)	histopathology of midbrain, brainstem, liver and pancreas [2]	histopathology of sigmoid colon [2]	histopathology of terminal ileum [2]	expansion of the Treg compartment at peak [3]	serum levels of IFN-γ and TGF-β [3]	serum levels of IL-2, IL-4, IL-5, IL-10 or TNF-α [3]	time of peak relative fold-expansion of Treg [3]	Treg expansion ([3]; 0.5 mg/kg dose versus 1.5 mg/kg)
hTL1A-Ig: extracellular domain of human TL1A fused to hinge-CH2-CH3 domain of human IgG1, SEQ ID NO: 16	12.5 h	significant increase	not in lymph nodes	1.94±0.21	4.54±0.69%	1.71±0.24%	did not significantly alter	increased expression of CD69	increased expression of CD69	no evidence of inflammation or pathology	mild, multifocal, lymphoplasmacytic infiltrates	mild, diffuse mucosal and submucosal edema	approximately 3 fold	trend toward decreased levels	no detectable changes	4 days post-treatment	
B1										no evidence of inflammation or pathology	mild, multifocal, lymphoplasmacytic infiltrates	mild, diffuse mucosal and submucosal edema	approximately 3 fold	trend toward decreased levels	no detectable changes	4 days post-treatment	non-significantly reduced trend
